# Source: the nanobody polyreactivity screen of Harvey et al. (2022)
# Experiment: yeast display, Sf9 membrane polyspecificity reagent, FACS + sequencing; frameworks hold sequencing errors
# In short: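 Sorting gates, low and high (top ~1%), were placed on anti-HA fluorescence to track expression and on streptavidin fluorescence to track reagent binding. A clone's polyreactivity label is taken from the gate it came out of. The reagent was 10% biotinylated, detergent-solubilized Sf9 membrane, applied for 1 hour at 4 °C to galactose-induced yeast display cells.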
row,Sequence,polyreactivity (PSR sort gate)
1,QVQLVESGGGLVQAGGSLRLSCAASGSIFGRYGMVCYRQAPGKERQLVAAITSGTGTNYADSVKGRFTISRDNALNTVYLQMNSLKPEDTAVYYCNALRLRGNYEYGYWGQGTQVTLSS,low polyreactivity
2,QVQLVESGGGLVQAGGSLRLSCAASGFTFSAYAMGWYRQAPGKERELVAAISTRGGSTRYADSVKGRFTISRDNAKNTVYLQMNSLKPADTAVYSCAADTRSFYRYDYWGQGTQVTVSS,high polyreactivity
3,QVQLVESGGGLVQAGGSLRLSCAASGSTFFSYTMGWSRQAPGKEWELVAAITWSAGTTYYADSVKGRFTISRDNAKNTVYLQMNSLKPEDTAVYYCNADLSRYPTAVRMDYWGQGTQVTVSS,low polyreactivity
4,QVQLVESGGGLVQAGGSLRLSCAASGRTFYNYAMGWYRQAPGKERELVAAITRGGSTYYADSVKGRFTISRDNAKNTVYLQMNSLKPEDTAVYYCNAVFPYEHEEYDYWGQGTQVTVSS,high polyreactivity
5,QVQLVESWGGLVQAGGSLRLSCAASGMGRYRQAPGKERELVAAINWSGGNTYYADSVKGRFTISRDNAKNTVYLQMNSLIPEDTAVDYCNAVVWVEVPGDYWGQGTQVTVSS,low polyreactivity
6,QVQLVESGGGLVQAGGSLRLTCAASGGTLRYYGMGWYRQAPGKEWEFVAAISWSGDSTYYADSVKGRFTISRDNAKTTVYLQMNSLKPEDTAVYFCAATYYLTYYYGQANHGYDYWGQGTQVTVSS,low polyreactivity
7,QVQLVDSWGGLVQAGASLRLSCAASGNTYSSYAMGWYRKAPGKERELVASITGRGGSTYYSDSVKGRFTISRDNAKNIVYLQMNSLKPEDTAVYYCTAKRFYITDDPLDYFYWGQCTQVTVSS,high polyreactivity
8,QVQLLESGGGLVQAGGSLRLSCAASGRIFNYNVMGWYRQAPGKERELVAAISRRGTSTFYADSVKGRFTISRDNAKNTVYLQMNSLIPVDTAVYYCAADFYSNHYDYWGQGTQVTVSS,high polyreactivity
9,QVQLVESGGGLVQAGGSLRLSCAASGSTFRLYAMGGSRQAPGKERELVAAIRSGGNTNNADSVKGRFTISRDNAKHTVYLQMNSLKPEDTAVYYCNGFSGQLPVPNYDYWGQGTQVTVSS,high polyreactivity
10,QVQLVESGGGLVQAGGSLRLSCAASGIFFQQYAMGWYRLAPGKERELVAAISRGGTRTYYADSVKGRFTISRDNAKNTGYLQMNSLKPEDTAVYYCAADRGYVSYDYWGQGTQVTVSS,high polyreactivity
11,QVQLVESGGGLVQAGGSLRLSCAASGSIFYVYAMGWYRQAPGKERELVAAITSSGTTNYADSVKGRLTISRDNAKNTVYLQMNSLKPEDTAVYYCAADPDSGQVPFDYWGQGTQVTVSS,low polyreactivity
12,QVQLVESGGGLVQAGGSLRLSCAASGRTFYRNTMGWYRQAPGKERELVAAITSSGGSTYYADSVKGRFTISRDNAKNTVYLQMNSLKPEDTAVYYCAAPTWQKVVNPGGYYWGQGTQVTVSS,high polyreactivity
13,QVQLVESGGGLVQAGGSLRLSCAASGFTFFNYAMGWYRQAPGKERELVAAISRSGGGTYYADSVKGRFTISRDNAKNTDYLQMNSLKPEDTAVYYCNKRGTHGYTYRKFDYWGQGTQVTVSS,high polyreactivity
14,QVQLVESGGGLVQAGGRLRLSCAASGFIYENAMGWYRQAPGKERELVAAISYSGGCTYYADSVKGRFTISRDNAKNTVYLQMNSLKPEDTAVYVCAADTQGYDYDYWGQGTQVTVSS,low polyreactivity
15,QVQLVESGRGLVQAGGSLRLSCAPSGRIFKYYAKGWYRQAPGKERELVATITSGANTNYADSVKGRFTISRDNAKNTVYLQMNSLKPEDTAVYYCNADLDPRDYGFDYWGQGTQVTVSS,high polyreactivity
16,QVQLVESGGGLVQAGGSLRLSCAASGLTFNYYAMGWYRQAPGKERELVAAITSSGGRTYYADSVKGRFTISRDNAKNTFYLQMNSLKPEDTAVYYCNTVSYRQGAVWFRYDYWGQGTQVTVSS,high polyreactivity
17,QVQLVESGGGLVQAGGRLRLSCAASGSTFATYTMGWYRQPPGKERELVAAISVSGSRTYYADSVKGRFSISRDNAKNTVYLQMNSLKPEDTAVYYCAAANHKGSRMDYWGPGTQVTVSS,high polyreactivity
18,PVQLVESGGGLVQAGGSLRLSCAASGFIYPRYAMGWYRQAPGKEREVVAAISYSGGSTYYADSVKGRFTISRDNAKNTVYLQMNSLKPEDTAVYYCAARLFKDSWMDYWGQGTQVTVSS,high polyreactivity
19,QVQLVESVGGLVQAGGSLRLSCAASGFTFSPNARGSYRQAPGKERELVAAIDWSGDRTYYADSVKGRFTISRDNAKNTVYLQMNILKPEDTAVYYCKVVRRSPGDYSYYYWGQGTQVTVSS,low polyreactivity
20,QVHLVESGGGLVQAGGSLRLSCAASGSILTDNAMGWYRQAPGKERELVAAITSSGNTNYADSVKGRFTISRDNAKNTVYLQMNSLKPEDTAVYYCAADSYYKHWTDWLPVGEDYWGQGTEVTVSS,low polyreactivity
21,QVQLVESGGGLVQAGGSLRLSCAASGRTFTRYSMGWYRQAPGKERELVAAISRSGGSTYYADSVKGRFTISRDNAKNTVYLQMNSLKPEDTAVYYCAADVYRDLAYDYWGQGTQVTVSS,high polyreactivity
22,QVQLVESGGGLVQAGGSLRLSCAASGFTFDYYTMGWYRQAPGKEREFVAAITWNGGTTNYADSVKGRCTISRDNAKNTVYLQMNSLKPEDTALYYCADTAYWYFSNDSGRSYDYWGQGTQVTVSS,low polyreactivity

row,Sequence,polyreactivity (PSR sort gate)
1,QVQLVESGRGLVQAGGSLRLSCAPSGSTFGKYAMGWFRQAPGKERELVAASSSGTSTNYADSVKGRFTISRDNAKNTVYLQMNSRKAEDTSVYYCAADSLKRYDDWGQGTQVTVSS,low polyreactivity
2,QVQLVESGGGLVQAGGSLRLSCAASGRTFPPYAMGWYRQAPRKESELVAAISGSGASTYYADSVKGRFTISRDNAKNTVYLQMNSLKPEDTAVYYCAARRGSGKFGKYRGVDYWGQGTQVTVSS,high polyreactivity
3,QVQLVDSGGGLVQAGGSLRLSCAASGRTFQFYVMGWYRQAPGKERELVASIRSGGSTNYADSVKGRFTISRDNAKNTVYLQMNSLKPEDTAVYYCATESYPADQDIPGSDYWGQGTQVTVSS,low polyreactivity
4,QVQLVESGGGLVQAGGCLRVSCAASGNICVIYAMGGDRKAPGKERELLAAINWNSGRTYYADSVKGRFTISRDNAKNTVYLQMNSLKPEDTAVYYCAARTWGFGYPEFGYWGQGTQVTVSS,high polyreactivity
5,QVQLVESGGRLVQAGGSLRLSCAASGRIFSRYAMGWYRPAPGKERELVATITWSGGSTYYADSVKGRFTISRDNAKNTVYLQMNSLKPEDTAVYYCNADVTYLYKMDYWGQGTQVTVSS,low polyreactivity
6,QVQLVESGGGLVQAGGSLRLSCAASGFTLPLYAMGWYRQAPGKERELVATISSGGTTYYADSVKGRFTISRDNAKNTVYLQMNSLKPEDTAVYYCNTLRQLGRPFYYWGQGTQVTVSS,high polyreactivity
7,QVQLVESGGGLVQAGGSLRLSCAASGRTFYYYAMGWYRQAPGKERELVAAITSNGGSTYYADSVKGRFTISRDNAKNTVYLPMNSLKPEDTAVYYCAADTYWYLSPYDYWGQGTQVTVSS,low polyreactivity
8,QVQLVESRGVLVQAGGSLRLSCAASGRTFYYYAMGWYRQAPRKERELVAAINTRRTSTYYADSVKGRFTISRDNAKKTVYLQMNSLKPEDTAVYYCAVDPYGDSWEDWFRNYYYGYDYWGQGTQVTVSS,low polyreactivity
9,QVQLVESGGGLVQAGGSLRLSCAASGIIFWAYALGWYRQAPGKERELVAVISRGGSTNYADSVKGRFTISRDNAKNTVYLQMNSLKPEDTAVYYCAARYGWGQGTQVTVSS,high polyreactivity
10,QVQLVESGGGLVQAGGSLRLSCAASGGIFKYNAMGWYRQSPGKERELVAAIDTSGGSTYYADSVKGRFTISRDNAKNTVYLQMNSLKPEDTAVYYCAAELGLAQYYYWGQGTQVTVSS,low polyreactivity
11,QVQLVESGGGLVQAGGSLRLSCAASGRTFGRYAMGWYRQAPGKERELVASITSRGGSTYADSVKGRFTISRDNAKNTVYLQMNSLKPEDTAVYYCASRDKYRYWYAYWRQGTQVTVSS,high polyreactivity
12,QVQLVESGGGLVQAGGSHRLSCAASGFTFYIYAMGWYRQAPGKERELVAAINIGGGGTYYADSVKGRFTISRDNAKNTVYLLMHSLKPEDTAVYDCAAVYCYDYYCTEYDYWGQGTQVNVSS,low polyreactivity
13,QVQLVESVGGLVQAGGSLRLSCAASGRTIVTNAIGWYRQAPGKERELVAAISRRTGSTYYADSVKGRFTISRDNAKNTVYLQMNSLKPEDTAVYYCAAKGYGSAPTYRHNYWGQGTQVTVSS,high polyreactivity
14,QVQLVESGGGLVQAGGSLRLSCAASGRTFRYNTMGWYRQAPGKERELVAAITWSGGRTYYADSVKGRFTISRDNAKNTVYLQMNSLNPEDTAVYYCNADVPYSRSIYGFYYWGQGTQVTVSS,high polyreactivity
15,QVQLVESGGGLVQAGGILRLSCAASGSIFNYYAMGWYRQAPGKEREMVAAITTSGGRTYYADSVKGRFTISRDNAKNTVYLQMNSLKPEDTAVYYCAARGYGRRAYVYRYDYWGQGTQVTVSS,high polyreactivity
16,QVQLVESGGGLVQAGGSLRLSCASSGFTFLINAMGWYRQAPGKERDLVAAIRSGGSTNYADSVKGRFTISRDNAKNTVYLQMNSLKPEDTAVYYCAARRYYPYKYRYGYWGQCTQVTVSS,high polyreactivity
17,QVQLVESGGGLVQAGRSLRLICAASGSTFVIYDMVWYRQAPGKERELVAAISYSGGSTYYADSVKGRFKISRDNAKNTVYLEMNSLKPEDTAVYYCNAGVLVLLYSYLQSELEYWGQGTQVTVSS,low polyreactivity
18,QVQLVESGGGLVQAGGSLRLSCAASGIIFSDYAMGWYRQAPGKERELVAAISSNAGTTSYADSVKGRFTISRDNAKNTVYLQMNSLKPEDTAVYYCNADSSYPPGYDYCGQGTQVTVSS,low polyreactivity
19,QVQLVESVGGLVQAGGSLRLSCAASGIIFWLSTMGWYRQAPGKERELVAAITSGGSTYYADSVKGRLTISRDNAKNTVYLQMNSLKQEDTALYYCAAVPRYRRWKYDYWGQGTQVTVSS,high polyreactivity
20,QVQLVESGGGLVQAGGSLRLSCAASGSIFTSNAMGWYRQAPGKERELVAAITSSSSTNYADSVKGRFTISRDNAKNTVYLQMNSLKPEDTAVYYCAKQGNNIPWYRPYGDYYYWGQGTLVTVSS,low polyreactivity
21,QVQLVESGGGLVQAGGSLRLSCAASGFTLGWYVMGWYRQAPGKERELVAGISWSGGNTYYADSVKGRFTISRDNAKNTVYLQMHSLKPEDTAVYYCNADRTYPDYDYWGQGTQVTVSS,low polyreactivity
